Experimental findings from paper PMC4652764, “The La-related protein 1-specific domain repurposes HEAT-like repeats to directly bind a 5′TOP sequence” are described below.

Common to all, as to settings: protein: recombinant; tags: His6-MBP removed by TEV; glycine linker remnant; label: 5'-32P (EMSA, probing)
On the technique in general: In EMSA bound probe runs differently from free probe, usually more slowly.

In one data set the target is DM15 R840E (human, UniProt Q6PKG0 873-1023, R917E). Briefly: EMSA; up to 30 uM protein; EMSA: 20 mM Tris-HCl pH 8, 150 mM NaCl, 10% glycerol, 1 mM DTT, 0.5 ug tRNA, 1 ug BSA, <2 nM RNA, 30 min on ice, native 0.5x TBE gel at 4 C.
A further data set addresses DM15 Y883A (human, UniProt Q6PKG0 873-1023, Y960A). The data set is described as above.
The next data set has as its target DM15 GQ908-909AA (human, UniProt Q6PKG0 873-1023, G985A;Q986A). Briefly: EMSA; up to 150 uM; two-state shift like WT, more protein needed for maximum shift; EMSA: 20 mM Tris-HCl pH 8, 150 mM NaCl, 10% glycerol, 1 mM DTT, 0.5 ug tRNA, 1 ug BSA, <2 nM RNA, 30 min on ice, native 0.5x TBE gel at 4 C.

Regarding CCUCUUUUCCGUGGCGCCUC (ssRNA) [RPS6-20mer], the binding result is recorded as “no binding” in the data set with DM15 R840E, “no binding” with DM15 Y883A and “binds” with DM15 GQ908-909AA.
